Target: FHV−1-K1ウイルス粒子 (feline herpesvirus-1, strain K1, virus particles; crude ammonium sulfate precipitate)
Assay: cell-based or functional assay

B1: 抗FHV−1キメラ抗体FH2 (cat-type anti-FHV-1 chimeric antibody FH2) (antibody, part only; not given: cat constant regions, part only)
heavy, part: QVTLKESGPGILQPSQTLSLTCSFSGFSLSTSGMGAGWIRQPSGKGLEWLAHIWWDDVKRYNPALKSRLTISKDTSSSQVFLKIASVDTADTATYFCVRSQIYFDYDGAWFPFWGQGTLVTVSA
light, part: DIVLTQSPATLSVTPGDSVSLSCRASQSISNNLHWYQQKSHESPRLLIKYASQSISGIPSRFSGSGSGTDFTLSINSVETEDFGMYFCQQSNSWPHTFGAGTKLELK
B1 was tested, and the 最低有効中和濃度 (lowest effective neutralising concentration; 100 TCID50 FHV-1, CPE on CRFK cells) was 1.95 µg/mL.

Source: patent JPH06217786A
